In the supplement of paper PMC9170038:

System: MS2 coat protein
Assay: apparent KD of MS2 coat protein; designed switch direction (-1 OFF switch, 1 ON switch): -1; higher = weaker reporter binding
How it was run: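 The buffer was Tris-HCl pH 7.5 with KCl, MgCl2, BSA, DTT, tRNA and Tween-20. In it, SNAP-549-labelled MS2 coat protein was titrated in doubling steps from 0.7 or 1.5 nM to 3 µM over chip-bound RNA switches transcribed by stalled E. coli RNA polymerase on Illumina chips. Apparent KD is the per-design median over clusters of curve fits to normalised fluorescence.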

[1] = Eterna round: R95, input ligand: FMN 200 uM
[2] = Eterna round: R95, input ligand: microRNA oligo, concentration not stated
[3] = Eterna round: R95, input ligand: none
[4] = input ligand: microRNA oligo, concentration not stated

| Sequence | apparent KD of MS2 coat protein (input ligand: FMN 200 uM) [nM] | apparent KD of MS2 coat protein (input ligand: none) [nM] | apparent KD of MS2 coat protein [1] [nM] | apparent KD of MS2 coat protein [2] [nM] | apparent KD of MS2 coat protein [3] [nM] | apparent KD of MS2 coat protein [4] [nM] |
| --- | --- | --- | --- | --- | --- | --- |
| CAUAGUCUAGGAUAUUCACCUCUAUACAUGAGGAUCACCCAUGUCAAUGGCAGAUGACCAGAAGAAGGAGAAGUGG [Eternabot (L1) Solution 16] (Eterna round: R97, puzzle: Exclusion 5) | 90.2 | 84.8 | – | – | – | – |
| AGUAGAUCUACGCUUGCGUGGAUCUGCUAUGCAGGUGUUACAUGAGGAUCACCCAUGUCCUCAUUUGCUCGUCUUAU [JL turnoff v2 99.14] (puzzle: Sensor v3, turn-off variant 2) | – | – | 133 | 356 | 138 | – |
| GGUCGCAGGACAGGAUAUCCAAGCGAUCUAACAUGAGGAUCACCCAUGUGCUAAGGCAGAGGGACGGAGAAGGGUCGAUCGGCC [Inqusodire] (Eterna round: R96, puzzle: Exclusion NG 2) | 166 | 58.3 | – | – | – | 42.4 |
| GGUUGGCGAGGAUAUACAUGAGGAUCACCCAUGUGAGAGAAAAAAGUGAGAACGAAAAGUAGAAGGCGCUGACG [salish99_ex3_r3_057] (puzzle: Exclusion 3) | – | – | 272 | 122 | 76.9 | – |
| UAUAUGUCAGGAUAUUAGUUGUGUUCGAAUUUCACUUCUGCUGAGAAGGGACAUGAGGAUCACCCAUGUUCCUC [JR_Ex4_Sub006] (Eterna round: R97, puzzle: Exclusion 4) | 17.1 | 15.9 | – | – | – | – |
| CCUAGUUGGUAAGGAUAUCCUACACUAUUCUGACCCGUGCAAGCUACAUGAGGAUCACCCAUGUGGGAGAAGGUGCGUCAACGU [Design 10] (Eterna round: R96, puzzle: Exclusion NG 2) | 21.3 | 23.8 | – | – | – | 18.2 |
| AACAUGGUAAAGGAUAUUGUCGCAGAAUGCGAUCAAGAAGGUUACACAUGAGGAUCACCCAUGUGGAAUCCAUC [Eternabot (Original) Solution 24] (Eterna round: R97, puzzle: Exclusion 6) | 63.2 | 17.2 | – | – | – | – |
| UAAAUAAAUGUAGGAUAUCUGCACGAUUAGUGCAGAGAAGGACAUGAGGAUCACCCAUGUAUAGUAGCUUCGGCUACAAAUAAU [ENG1-C1] (Eterna round: R96, puzzle: Exclusion NG 1) | 89.9 | 71.2 | – | – | – | 51.9 |
| AGUAUCUAUCAUGAGAGUGGUAGGUACAACAGGUGGGAAACAUGAGGAUCACCCAUGUCCUCAUUUGCUCGUCUUAU [Grok-var2-01] (puzzle: Sensor v3, turn-off variant 2) | – | – | 550 | 144 | 764 | – |
| UUUAAUUUUUUUUUUUUACAAGCUUUUUGCUCGUCUUAUACAUGAGGAUCACCCAUGUGAAUGGGAGAUAAAUUAUC [JMF 18] (puzzle: Sensor v3, turn-off variant 2) | – | – | 356 | 508 | 456 | – |
| UUUUCGUAAGGAUAUGGUUAGAUCUACGAAAGUAGAUCUAACCAGAAGGUACAUGAGGAUCACCCAUGUUGAUA [Mod of Brourd 21 - Jieux - Exclusion 4] (Eterna round: R97, puzzle: Exclusion 4) | 32 | 22.5 | – | – | – | – |
| AAACGGCGGACCGUGGCUUUUUGCUCGUCUUGUGCUUCGACAUGAGGAUCACCCAUGUGGUGGUGGUCCGUUGUAAA [Grok-var2-15 mod JAL] (puzzle: Sensor v3, turn-off variant 2) | – | – | 48.3 | 40.3 | 80.3 | – |
| UUAUUAAUUAAUAUUAUAAGAUCACAUGAGGAUCACCCAUGUCAGGAUAUCAGCUCGAUUAGAGCUGAGAAGGGACAAAUAAUA [ExNG3/15-B1] (Eterna round: R96, puzzle: Exclusion NG 3) | 1450 | 268 | – | – | – | 157 |
| CCGUAACAUGAGGAUCACCCAUGUCAGGAUAUUCCAAAAUCGUCGAAAGACGAUAACAGAAGAAGGGACAGUGG [Fiskxlusion 5 - Jieux - Exclusion 1] (Eterna round: R97, puzzle: Exclusion 1) | 104 | 111 | – | – | – | – |
| GCUGUAGAAGGAUAUGCUUCGACUCACAUGAGGAUCACCCAUGUCUUCGUGCAGUCGUCUGCAGAAGGUCUCCAGU [EX5 C.8] (Eterna round: R97, puzzle: Exclusion 5) | 1820 | 504 | – | – | – | – |
| AAGUACCGUCACGAUAGUGAUGGUACAACAAGCAGUGACACAUGAGGAUCACCCAUGUCCUCAAUUGCUCGUCUUAU [Sensor 3 - 76] (puzzle: Sensor v3, turn-off variant 2) | – | – | 179 | 383 | 156 | – |
| AGUCAGGCGGUAGGAUAUCCAUAUCGAGUGACCCUUUCAUAACAUGAGGAUCACCCAUGUCGGUGGGAGAAGGGCCGUACGGCG [JL ViennaUCT Atra mod 4] (Eterna round: R96, puzzle: Exclusion NG 2) | 203 | 103 | – | – | – | 84.2 |
| AUUUUGUGAGGAUAUGUGGCUUCGAUCGUGAAAUCGAGGCUACAGAAGGCACAUGAGGAUCACCCAUGUUCCUA [salish99_ex4_r4_117] (Eterna round: R97, puzzle: Exclusion 4) | 178 | 19.6 | – | – | – | – |
| CUAUGAGUAGGAUAUGAGCCAAAAUACAUGAGGAUCACCCAUGUCGGGUUCAUGGAGGGCUCAGAAGGAUUCAAUA [Exclusion 5 - Laarte Mod2] (Eterna round: R97, puzzle: Exclusion 5) | 59.8 | 17.1 | – | – | – | – |
| UAUUAGCAAGCGAGAUCCUACAUGAGGAUCACCCAUGUGCUCGUCUUGUAAGGUACUGUGACGAAAGUCACGGUACC [Eli 91 v38] (Eterna round: R97, puzzle: Sensor, turn-off variant 1) | 16.5 | 15.6 | – | – | – | – |
| CAGGUGUAAGGAUAUACCGGAUGGUCCAAAGCUUGGCAAAGACAUGAGGAUCACCCAUGUAGAAGGUACGUCCG [Eternabot (Original) Solution 21] (Eterna round: R97, puzzle: Exclusion 2) | 313 | 383 | – | – | – | – |
| AAGAAACAUGAGGAUCACCCAUGUGAGGAUAUGUAAAAGAAAAGAAAAGAAAGAAGAAACAGAAGGCACAAAGG [Mat - Mod of Hog D12] (puzzle: Exclusion 1) | – | – | 82 | 50.7 | 45.2 | – |
| UCCUCACUUGAGGAUCACCCAAGUCAGGAUAUUCACUGAACUGCGUAGCAGUUCGGCCGAAGAAGGGAUUCGGG [Lacequla] (Eterna round: R97, puzzle: Exclusion 1) | 54.8 | 107 | – | – | – | – |
| UAAAACGCAGAGGAUAUAUCAGAUCAAAGCUGCAUAGAAGGCUGCACAUGAGGAUCACCCAUGUGGUCUUUAAU [Mat - Exclusion 6 - JL Mod - D1] (Eterna round: R97, puzzle: Exclusion 6) | 206 | 20.6 | – | – | – | – |
| CUAUUGUGAGGAUAUCAGUAGUAGAACAAUAGUACUACUACUGAGAAGGCACAUGAGGAUCACCCAUGUUCCUC [Fiskers Ex 4 Super stable 44 mod 7] (puzzle: Exclusion 4) | – | – | – | 57.3 | – | – |
